Measured values taken from the supplement of paper PMC10567573.

B1: ANKRD44 (parent)
chain: FHCIETLVTTGANVNETDDWGRTA

Variants of: B1
Assay: protein stability index of a GFP-peptide fusion (GPS, HEK-293T) (PSI 1-6); higher = more stable
Settings: c terminus: a fixed tail appended
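Further: lentivirally expressed fusions sorted by FACS into six bins by GFP to DsRed ratio, PSI derived from sequencing read proportions per bin multiplied by bin number.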

Q: For FHCIEDLVTTGANVNETDDWGRTA [T6D], which protein stability index is on record?
A: The protein stability index was 3.61.

Q: Which protein stability index does the source give for FHCIEELVTTGANVNETDDWGRTA [T6E] here?
A: The protein stability index was 2.69.

Q: For FHCIEFLVTTGANVNETDDWGRTA [T6F], which protein stability index is on record?
A: The protein stability index was 2.03.

Q: With FHCIEGLVTTGANVNETDDWGRTA [T6G] as the variant, how does the protein stability index read?
A: Its protein stability index is 1.73.

Q: Which protein stability index does the source give for FHCIEHLVTTGANVNETDDWGRTA [T6H] here?
A: The protein stability index was 2.52.

Q: Which protein stability index does the source give for FHCIEKLVTTGANVNETDDWGRTA [T6K] here?
A: The protein stability index was 1.93.

Q: Which protein stability index does the source give for FHCIELLVTTGANVNETDDWGRTA [T6L] here?
A: Its protein stability index is 3.01.

Q: For FHCIEMLVTTGANVNETDDWGRTA [T6M], which protein stability index is on record?
A: The protein stability index was 2.18.

Q: For FHCIENLVTTGANVNETDDWGRTA [T6N], which protein stability index is on record?
A: The protein stability index was 2.52.

Q: For FHCIEPLVTTGANVNETDDWGRTA [T6P], which protein stability index is on record?
A: The protein stability index was 2.08.

Q: For FHCIEQLVTTGANVNETDDWGRTA [T6Q], which protein stability index is on record?
A: The protein stability index was 2.16.

Q: With FHCIERLVTTGANVNETDDWGRTA [T6R] as the variant, how does the protein stability index read?
A: Its protein stability index is 1.96.

Q: Which protein stability index does the source give for FHCIESLVTTGANVNETDDWGRTA [T6S] here?
A: The protein stability index was 2.71.

Q: Which protein stability index does the source give for FHCIEVLVTTGANVNETDDWGRTA [T6V] here?
A: The protein stability index was 3.28.

Q: For FHCIEWLVTTGANVNETDDWGRTA [T6W], which protein stability index is on record?
A: The protein stability index was 3.88.

Q: With FHCIEYLVTTGANVNETDDWGRTA [T6Y] as the variant, how does the protein stability index read?
A: Its protein stability index is 3.59.

Q: With FHCIETAVTTGANVNETDDWGRTA [L7A] as the variant, how does the protein stability index read?
A: The protein stability index was 2.2.

Q: With FHCIETCVTTGANVNETDDWGRTA [L7C] as the variant, how does the protein stability index read?
A: The protein stability index was 2.01.

Q: Which protein stability index does the source give for FHCIETDVTTGANVNETDDWGRTA [L7D] here?
A: Its protein stability index is 4.03.

Q: Which protein stability index does the source give for FHCIETEVTTGANVNETDDWGRTA [L7E] here?
A: Its protein stability index is 3.82.

Q: Which protein stability index does the source give for FHCIETFVTTGANVNETDDWGRTA [L7F] here?
A: The protein stability index was 2.86.

Q: For FHCIETGVTTGANVNETDDWGRTA [L7G], which protein stability index is on record?
A: Its protein stability index is 2.42.

Q: For FHCIETHVTTGANVNETDDWGRTA [L7H], which protein stability index is on record?
A: Its protein stability index is 2.56.

Q: For FHCIETIVTTGANVNETDDWGRTA [L7I], which protein stability index is on record?
A: Its protein stability index is 2.23.

Q: Which protein stability index does the source give for FHCIETKVTTGANVNETDDWGRTA [L7K] here?
A: The protein stability index was 2.89.

Q: With FHCIETMVTTGANVNETDDWGRTA [L7M] as the variant, how does the protein stability index read?
A: The protein stability index was 2.19.

Q: With FHCIETNVTTGANVNETDDWGRTA [L7N] as the variant, how does the protein stability index read?
A: Its protein stability index is 3.08.

Q: With FHCIETPVTTGANVNETDDWGRTA [L7P] as the variant, how does the protein stability index read?
A: The protein stability index was 3.04.

Q: Which protein stability index does the source give for FHCIETQVTTGANVNETDDWGRTA [L7Q] here?
A: Its protein stability index is 2.49.

Q: Which protein stability index does the source give for FHCIETRVTTGANVNETDDWGRTA [L7R] here?
A: The protein stability index was 2.66.

Q: With FHCIETSVTTGANVNETDDWGRTA [L7S] as the variant, how does the protein stability index read?
A: The protein stability index was 2.57.

Q: With FHCIETTVTTGANVNETDDWGRTA [L7T] as the variant, how does the protein stability index read?
A: The protein stability index was 2.85.

Q: Which protein stability index does the source give for FHCIETVVTTGANVNETDDWGRTA [L7V] here?
A: The protein stability index was 2.19.

Q: Which protein stability index does the source give for FHCIETYVTTGANVNETDDWGRTA [L7Y] here?
A: The protein stability index was 3.58.

Q: For FHCIETLATTGANVNETDDWGRTA [V8A], which protein stability index is on record?
A: Its protein stability index is 2.05.

Q: For FHCIETLCTTGANVNETDDWGRTA [V8C], which protein stability index is on record?
A: The protein stability index was 2.03.

Q: For FHCIETLDTTGANVNETDDWGRTA [V8D], which protein stability index is on record?
A: Its protein stability index is 3.76.

Q: Which protein stability index does the source give for FHCIETLETTGANVNETDDWGRTA [V8E] here?
A: Its protein stability index is 3.35.

Q: With FHCIETLFTTGANVNETDDWGRTA [V8F] as the variant, how does the protein stability index read?
A: Its protein stability index is 2.26.

Q: With FHCIETLGTTGANVNETDDWGRTA [V8G] as the variant, how does the protein stability index read?
A: The protein stability index was 1.89.

Q: For FHCIETLHTTGANVNETDDWGRTA [V8H], which protein stability index is on record?
A: The protein stability index was 2.45.

Q: With FHCIETLITTGANVNETDDWGRTA [V8I] as the variant, how does the protein stability index read?
A: The protein stability index was 1.8.

Q: For FHCIETLKTTGANVNETDDWGRTA [V8K], which protein stability index is on record?
A: Its protein stability index is 2.42.

Q: With FHCIETLLTTGANVNETDDWGRTA [V8L] as the variant, how does the protein stability index read?
A: Its protein stability index is 1.4.

Q: For FHCIETLMTTGANVNETDDWGRTA [V8M], which protein stability index is on record?
A: The protein stability index was 2.2.

Q: Which protein stability index does the source give for FHCIETLNTTGANVNETDDWGRTA [V8N] here?
A: The protein stability index was 2.86.

Q: For FHCIETLPTTGANVNETDDWGRTA [V8P], which protein stability index is on record?
A: Its protein stability index is 3.48.

Q: For FHCIETLQTTGANVNETDDWGRTA [V8Q], which protein stability index is on record?
A: The protein stability index was 3.

Q: With FHCIETLRTTGANVNETDDWGRTA [V8R] as the variant, how does the protein stability index read?
A: The protein stability index was 2.15.

Q: Which protein stability index does the source give for FHCIETLSTTGANVNETDDWGRTA [V8S] here?
A: The protein stability index was 3.12.

Q: With FHCIETLTTTGANVNETDDWGRTA [V8T] as the variant, how does the protein stability index read?
A: Its protein stability index is 2.29.

Q: Which protein stability index does the source give for FHCIETLYTTGANVNETDDWGRTA [V8Y] here?
A: The protein stability index was 2.27.

Q: Which protein stability index does the source give for FHCIETLVATGANVNETDDWGRTA [T9A] here?
A: Its protein stability index is 2.01.

Q: With FHCIETLVCTGANVNETDDWGRTA [T9C] as the variant, how does the protein stability index read?
A: Its protein stability index is 1.78.

Q: Which protein stability index does the source give for FHCIETLVDTGANVNETDDWGRTA [T9D] here?
A: The protein stability index was 3.26.

Q: With FHCIETLVETGANVNETDDWGRTA [T9E] as the variant, how does the protein stability index read?
A: The protein stability index was 3.12.

Q: With FHCIETLVFTGANVNETDDWGRTA [T9F] as the variant, how does the protein stability index read?
A: The protein stability index was 1.25.

Q: For FHCIETLVGTGANVNETDDWGRTA [T9G], which protein stability index is on record?
A: Its protein stability index is 2.7.

Q: Which protein stability index does the source give for FHCIETLVHTGANVNETDDWGRTA [T9H] here?
A: Its protein stability index is 2.18.

Q: For FHCIETLVITGANVNETDDWGRTA [T9I], which protein stability index is on record?
A: The protein stability index was 2.67.

Q: For FHCIETLVKTGANVNETDDWGRTA [T9K], which protein stability index is on record?
A: The protein stability index was 2.83.

Q: Which protein stability index does the source give for FHCIETLVLTGANVNETDDWGRTA [T9L] here?
A: Its protein stability index is 1.77.

Q: For FHCIETLVMTGANVNETDDWGRTA [T9M], which protein stability index is on record?
A: Its protein stability index is 1.45.

Q: For FHCIETLVNTGANVNETDDWGRTA [T9N], which protein stability index is on record?
A: Its protein stability index is 2.56.

Q: For FHCIETLVPTGANVNETDDWGRTA [T9P], which protein stability index is on record?
A: The protein stability index was 2.06.

Q: With FHCIETLVQTGANVNETDDWGRTA [T9Q] as the variant, how does the protein stability index read?
A: The protein stability index was 2.63.

Q: With FHCIETLVRTGANVNETDDWGRTA [T9R] as the variant, how does the protein stability index read?
A: The protein stability index was 1.86.

Q: Which protein stability index does the source give for FHCIETLVSTGANVNETDDWGRTA [T9S] here?
A: The protein stability index was 2.23.

Q: With FHCIETLVVTGANVNETDDWGRTA [T9V] as the variant, how does the protein stability index read?
A: Its protein stability index is 1.6.

Q: For FHCIETLVYTGANVNETDDWGRTA [T9Y], which protein stability index is on record?
A: Its protein stability index is 1.54.

Q: Which protein stability index does the source give for FHCIETLVTAGANVNETDDWGRTA [T10A] here?
A: The protein stability index was 1.72.

Q: Which protein stability index does the source give for FHCIETLVTCGANVNETDDWGRTA [T10C] here?
A: The protein stability index was 1.96.

Q: With FHCIETLVTDGANVNETDDWGRTA [T10D] as the variant, how does the protein stability index read?
A: The protein stability index was 3.46.

Q: For FHCIETLVTEGANVNETDDWGRTA [T10E], which protein stability index is on record?
A: The protein stability index was 2.37.

Q: For FHCIETLVTGGANVNETDDWGRTA [T10G], which protein stability index is on record?
A: Its protein stability index is 1.92.

Q: With FHCIETLVTHGANVNETDDWGRTA [T10H] as the variant, how does the protein stability index read?
A: Its protein stability index is 2.08.

Q: For FHCIETLVTIGANVNETDDWGRTA [T10I], which protein stability index is on record?
A: The protein stability index was 1.7.

Q: For FHCIETLVTKGANVNETDDWGRTA [T10K], which protein stability index is on record?
A: Its protein stability index is 2.24.

Q: Which protein stability index does the source give for FHCIETLVTLGANVNETDDWGRTA [T10L] here?
A: The protein stability index was 1.65.

Q: For FHCIETLVTMGANVNETDDWGRTA [T10M], which protein stability index is on record?
A: The protein stability index was 1.71.

Q: For FHCIETLVTNGANVNETDDWGRTA [T10N], which protein stability index is on record?
A: The protein stability index was 2.66.

Q: With FHCIETLVTPGANVNETDDWGRTA [T10P] as the variant, how does the protein stability index read?
A: Its protein stability index is 2.36.

Q: With FHCIETLVTQGANVNETDDWGRTA [T10Q] as the variant, how does the protein stability index read?
A: The protein stability index was 2.63.

Q: With FHCIETLVTRGANVNETDDWGRTA [T10R] as the variant, how does the protein stability index read?
A: Its protein stability index is 2.34.

Q: Which protein stability index does the source give for FHCIETLVTSGANVNETDDWGRTA [T10S] here?
A: Its protein stability index is 2.08.

Q: Which protein stability index does the source give for FHCIETLVTVGANVNETDDWGRTA [T10V] here?
A: The protein stability index was 2.17.

Q: Which protein stability index does the source give for FHCIETLVTWGANVNETDDWGRTA [T10W] here?
A: Its protein stability index is 2.68.

Q: Which protein stability index does the source give for FHCIETLVTYGANVNETDDWGRTA [T10Y] here?
A: The protein stability index was 2.14.

Q: For FHCIETLVTTAANVNETDDWGRTA [G11A], which protein stability index is on record?
A: The protein stability index was 1.79.

Q: Which protein stability index does the source give for FHCIETLVTTCANVNETDDWGRTA [G11C] here?
A: Its protein stability index is 2.09.

Q: For FHCIETLVTTDANVNETDDWGRTA [G11D], which protein stability index is on record?
A: Its protein stability index is 2.88.

Q: With FHCIETLVTTEANVNETDDWGRTA [G11E] as the variant, how does the protein stability index read?
A: Its protein stability index is 2.94.

Q: Which protein stability index does the source give for FHCIETLVTTFANVNETDDWGRTA [G11F] here?
A: The protein stability index was 1.47.

Q: Which protein stability index does the source give for FHCIETLVTTHANVNETDDWGRTA [G11H] here?
A: Its protein stability index is 1.53.
